From paper PMC6793842 (2019)

B4: chimpanzee basigin, entire ectodomain (receptor)
chain: ASGAAGTVFTTVEDLGSKILLTCYMNDSATEVTGHRWLKGGVVLEEDALPGQKTEFKVDSDDQWGEYSCVFLPEPMGTANIQLHGPPRVKAVKSSEHINEGETAVLVCKSESVPPVTDWAWYKITDSGDKALMNGSESRFFVSSLQGRSELHIENLNMEADPGQYRCNGNSSEGSDQAVITLRVRSHLA
modifications: biotin (enzymatic monobiotinylation; site not stated)

Columns and labels:
Experiment in all cases: SPR
[1] = biological target: P. adleri RH5 (P. adleri)
[2] = biological target: P. praefalciparum RH5 (P. praefalciparum)
[3] = biological target: P. gaboni RH5 (P. gaboni)
[4] = biological target: B4
[5] = biological target: introgressed ancestral RH5 (reticulocyte-binding protein homologue 5) (calculated ancestor; parent sequence P. …, UniProt Q8IFM5 25-526, H200)
[6] = biological target: P. billcollinsi RH5 (P. billcollinsi)

B1: human basigin, entire ectodomain (receptor)
chain: EPGTVFTTVEDLGSKILLTCSLNDSATEVTGHRWLKGGVVLKEDALPGQKTEFKVDSDDQWGEYSCVFLPEPMGTANIQLHGPPRVKAVKSSEHINEGETAMLVCKSESVPPVTDWAWYKITDSEDKALMNGSESRFFVSSSQGRSELHIENLNMEADPGQYRCNGTSSKGSDQAIITLRVRSHLAAL
modifications: biotin (enzymatic monobiotinylation; site not stated)
[1]
  Kd: 3100 nM
[2]
  Kd: 1900 nM
[3]
  Kd: 3600 nM

B2: P. reichenowi RH5 (ligand)
chain: MIRIKKKIILSILYIHLFILNSLSFENAKKKTKNQENNLTLLPIKSSEEEKSNIKHKDIGNVNKDDINNDIDNDKKDVKISNVKDHSTYIKSYLNKNVNDGLKYLFMPSHNAYIKKYSLFNKMNNDMLLNEKKDVNNNKEDDKNINHKNVNFLQNDFKGLPKNNIADSIDIVQDKEGHLDFIIIPYYSHVEYCKHLSIISVFHRLSTYGEYKDVIAFVKNINEKYDKVKDKCNEIKNDLITTIKKLENPHDVNNKNEDSNIYNTFEDIDDIYEDDMQDQLEYVYDTIEDADSDNTHPNKKKYHLINRTYKKMMDEYNLKKNKLIQCIKNNEPDFNNIYMDIKNYSTNRFENISCDNINFCNTNGIKNHYIYYIEKEMLAIKSKDLNKDIKDMTSILQQSELLLINLNKKMGSYIYIDTIKFIHKEMKYIFKRIEHHTNIIIDKIKIIDDKYKISINKTFPKNILLPKILDLSNEYALFITSSTLRQMLYNTFYTKEKHLHNLFHHLIYVLQIKFNDVPVHMEYFPLYKKKKILTQ
[4]
  Kd: 4300 nM

B3: gorilla basigin, entire ectodomain (receptor)
chain: ASGAAGTVLTTVEELGSKILLTCSLNDSATEVTGHRWLKGGVVLKEDALPGQKTEFEVDSDDQWGEYSCVFLPEPMGTANIQLHHGPPRVKAVKLSEHINEGETAVLACKSESVPPVTDWAWYKITDSGDKALTNGSESRFFVSSSQGRSELYIENLNMEADPGQYRCNGTSSKGSDQAVITLRVRSHLA
modifications: biotin (enzymatic monobiotinylation; site not stated)
[1]
  Kd: 1000 nM
[2]
  Kd: 2500 nM
[5]
  Kd: 3000 nM

## B4
[6]
  Kd: 1800 nM
